Source: publication PMC2950906 (Nature structural & molecular biology, 2010)

B1: V. cholerae GspD secretin (VcGspD), full-length recombinant channel (natural protein)
chain: NEFSASFKGTDIQEFINIVGRNLEKTIIVDPSVRGKVDVRSFDTLNEEQYYSFFLSVLEVYGFAVVEMDNGVLKVIKSKDAKTSAIPVLSGEERANGDEVITQVVAVKNVSVRELSPLLRQLIDNAGAGNVVHYDPANIILITGRAAVVNRLAEIIRRVDQAGDKEIEVVELNNASAAEMVRIVEALNKTTDAQNTPEFLKPKFVADERTNSILISGDPKVRERLKRLIKQLDVEMAAKGNNRVVYLKYAKAEDLVEVLKGVSENLQAEKGTGQPTTSKRNEVMIAAHADTNSLVLTAPQDIMNAMLEVIGQLDIRRAQVLIEALIVEMAEGDGINLGVQWGSLESGSVIQYGNTGASIGNVMIGLEEAKDTTQTKAVYDTNNNFLRNETTTTKGDYTKLASALSSIQGAAVSIAMGDWTALINAVSNDSSSNILSSPSITVMDNGEASFIVGEEVPVITGSTAGSNNDNPFQTVDRKEVGIKLKVVPQINEGNSVQLNIEQEVSNVLGANGAVDVRFAKRQLNTSVMVQDGQMLVLGGLIDERALESESKVPLLGDIPLLGQLFRSTSSQVEKKNLMVFIKPTIIRDGVTADGITQRKYNYIRAEQLFRAEKGLRLLDDASVPVLPKFGDDRRHSPEIQAFIEQMEAKQ

Experiments:
[1] = target: EcGspD fragment 1-237 (peri-GspD), N0-N1-N2 subdomains of the secretin from enterotoxigenic E. coli (enterotoxigenic E. coli); experiment: SPR
[2] = target: the molecule itself; experiment: cryo-EM structure

| Molecule | Kd [1] [µM] | stoichiometry N [2] |
| --- | --- | --- |
| B-pentamer of heat-labile enterotoxin (LTB5) (from UniProt P32890 22-124) (complex) | 15.5 |  |
| B1 |  | 12 |
